From IntAct's records for PubMed 16682949

B1: Nuclear distribution protein nudE homolog 1 (Homo sapiens), Q9NXR1 (parent)
chain: MEDSGKTFSSEEEEANYWKDLAMTYKQRAENTQEELREFQEGSREYEAELETQLQQIETRNRDLLSENNRLRMELETIKEKFEVQHSEGYRQISALEDDLAQTKAIKDQLQKYIRELEQANDDLERAKRATIMSLEDFEQRLNQAIERNAFLESELDEKENLLESVQRLKDEARDLRQELAVQQKQEKPRTPMPSSVEAERTDTAVQATGSVPSTPIAHRGPSSSLNTPGSFRRGLDDSTGGTPLTPAARISALNIVGDLLRKVGALESKLASCRNLVYDQSPNRTGGPASGRSSKNRDGGERRPSSTSVPLGDKGLDTSCRWLSKSTTRSSSSC
partner: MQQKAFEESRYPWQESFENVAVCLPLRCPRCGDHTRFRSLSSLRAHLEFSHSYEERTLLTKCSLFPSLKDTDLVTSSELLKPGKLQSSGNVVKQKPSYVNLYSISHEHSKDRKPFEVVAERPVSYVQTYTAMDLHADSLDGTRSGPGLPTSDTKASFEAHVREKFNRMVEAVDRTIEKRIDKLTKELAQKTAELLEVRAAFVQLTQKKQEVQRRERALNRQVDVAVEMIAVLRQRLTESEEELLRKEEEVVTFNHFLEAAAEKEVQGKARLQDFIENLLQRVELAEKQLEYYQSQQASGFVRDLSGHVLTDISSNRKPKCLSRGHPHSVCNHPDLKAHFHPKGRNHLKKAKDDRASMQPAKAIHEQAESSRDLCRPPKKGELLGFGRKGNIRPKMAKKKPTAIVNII
B2: Nuclear distribution protein nudE homolog 1 (Homo sapiens), Q9NXR1 (parent)
chain: B1 chain

Variants of: B1
Settings: with zn365_human ZNF365, Q70YC5

Row | Variant | effect of a mutation on the interaction
1 | T191E;T215E;T228E;T243E;T246E;S282E | decreasing interaction

Variants of: B1
Settings: with zn365_human ZNF365, Q70YC5
Remark: another data set of the same source

Row | Variant | effect of a mutation on the interaction
2 | T191E;T215E;T228E;T243E;T246E;S282E | decreasing interaction

Variants of: B2
Settings: with cdk1_human CDK1, P06493
cdk1_human CDK1, P06493, sequence (P06493 whole entry, looked up): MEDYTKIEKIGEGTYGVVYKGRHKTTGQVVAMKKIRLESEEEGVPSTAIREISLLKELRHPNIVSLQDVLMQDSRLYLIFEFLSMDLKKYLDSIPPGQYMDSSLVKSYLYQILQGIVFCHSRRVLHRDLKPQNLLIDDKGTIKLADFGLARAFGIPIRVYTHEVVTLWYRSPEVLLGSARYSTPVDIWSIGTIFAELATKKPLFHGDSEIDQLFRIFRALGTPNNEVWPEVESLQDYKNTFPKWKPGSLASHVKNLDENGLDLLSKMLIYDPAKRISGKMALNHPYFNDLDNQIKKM

Row | Variant | effect of a mutation on the interaction
3 | T191V;T215V;T228V;T243V;T246V;S282V | decreasing interaction
